Assay results taken from PMC4297295, “Structural Conservation Despite Huge Sequence Diversity Allows EPCR Binding by the PfEMP1 Family Implicated in Severe Childhood Malaria” (Cell Host & Microbe, 2015).

What was measured:
[1] = biological target: endothelial protein C receptor (EPCR), extracellular domain, biotinylated on the N-terminal BAP tag (human) (UniProt Q9UNN8); assay: SPR
[2] = biological target: endothelial protein C receptor (EPCR), extracellular domain, not biotinylated (human) (UniProt Q9UNN8); assay: AUC
[3] = biological target: endothelial protein C receptor (EPCR), extracellular domain, not biotinylated (human) (UniProt Q9UNN8); assay: SEC-MALS; Superdex 75 analytical column, light scattering at 662 nm at 8 angles (Heleos 8), masses by the Zimm equation (ASTRA 6.1); HB3var03 CIDRα1.4, EPCR and their complex
[4] = biological target: endothelial protein C receptor, extracellular domain (human) (UniProt Q9UNN8); assay: small-angle X-ray scattering
[5] = biological target: CIDRα1.4 domain of PfEMP1 HB3var03, E. coli construct with domain boundaries for crystallisation (Plasmodium falciparum); assay: ITC; MicroCal iTC200, 25°C, 20 mM HEPES pH 7.5, 150 mM NaCl; EPCR (36 µM by the legend, 50 µM by the supplemental methods) injected into the cell with HB3var03 CIDRα1.4
[6] = biological target: T1, endothelial protein C receptor (EPCR), extracellular domain, biotinylated on the N-terminal BAP tag (human, UniProt Q9UNN8 18-210, biotin attached to the N-terminal BAP tag (BirA)); assay: SPR; Biacore T200; biotinylated EPCR captured on a CAP chip (Biotin Capture Kit) to 150 RU, fresh for each cycle; two-fold dilution series of each CIDRα1 injected for 240 s, dissociation 300 s; 20 mM HEPES pH 7.5, 150 mM NaCl, 0.005% Tween-20, 25°C; surface without EPCR subtracted; global fit to a 1:1 interaction model; details: both partners purified
T1 construct: also called biotinylated recombinant EPCR; ECPR
T1 sequence: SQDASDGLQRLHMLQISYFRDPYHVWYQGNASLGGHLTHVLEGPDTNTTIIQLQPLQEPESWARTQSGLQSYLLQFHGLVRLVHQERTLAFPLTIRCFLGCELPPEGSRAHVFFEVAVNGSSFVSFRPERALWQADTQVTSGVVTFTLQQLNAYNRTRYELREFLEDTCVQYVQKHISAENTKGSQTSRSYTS

**Q.** What does the source list for “CIDRα1.4 domain of PfEMP1 IT4var07, E. coli construct with domain boundaries for crystallisation (domain or fragment)”?
**A.** Kd [1]: 1.3 nM; koff [1]: 0.000468 s⁻¹; kon [1]: 370000 M⁻¹ s⁻¹

**Q.** For “CIDRα1.4 domain of PfEMP1 HB3var03, E. coli construct with domain boundaries for crystallisation (domain or fragment)”, which stoichiometry N [2] is on record?
**A.** The stoichiometry N was 1.

**Q.** And the Kd [1]?
**A.** The Kd was 0.37 nM.

**Q.** What about the koff [1] of the same molecule?
**A.** The koff was 0.000197 s⁻¹.

**Q.** What about the kon [1] of the same molecule?
**A.** The kon was 532000 M⁻¹ s⁻¹.

**Q.** What about the stoichiometry N [3] of the same molecule?
**A.** The stoichiometry N was 1.

**Q.** How did the stoichiometry N [4] turn out when “DD2var32 DBLα1.7-CIDRα1.4-DBLβ1 (the three membrane distal domains) (domain or fragment)” was run?
**A.** Its stoichiometry N is 1 PfEMP1:EPCR.

**Q.** With “endothelial protein C receptor (EPCR), extracellular domain, not biotinylated (from UniProt Q9UNN8 18-210)” as the molecule, how does the Kd [5] read?
**A.** Its Kd is 1.5 nM.

**Q.** And the stoichiometry N [5]?
**A.** Its stoichiometry N is 0.94.

B1: CIDRα1.5b domain 1918-5 (patient isolate 1918) (domain or fragment, Plasmodium falciparum)
chain: PDCGVKCTNGKCEEKTDVDGNCGNKETYIPPRDISPTEISVLYSGYKRDDISEKLETFCREPTNNKSKNNETWKCYYKHSYNNKINKCIRQNEENIKNKLIINLDTFFEFWVRSFLNDTIDWKYDLNTCMNFTNTTKCNNNCNKNCKCFEQWVNKKETEWKNVAQYFFKHNEISKKKYCEILKDIFENYYVEVIKKVFKGDNKWKEIMVDIKNKIDCSNLKNGTEHLEKIINVLINQEQADATTCLKNNPIESCPKAEPQKSDENTQPQDTPPNSC
notes: The C-terminal V5 and His tags are told for the newly synthesised domains (D1:p2); also called CIDRa1.5b 1918-5_1918; 1918-5 (1.5b)
**Q.** With B1 as the molecule, how does the Kd [6] read?
**A.** The Kd was 229 nM.

**Q.** And the koff [6]?
**A.** Its koff is 0.000108 s⁻¹.

**Q.** And the kon [6]?
**A.** Its kon is 471 M⁻¹ s⁻¹.
